Measurements as given in PMC314469, “Protein Interaction Networks by Proteome Peptide Scanning” (PLoS Biology, 2004).

T1: Boi1 SH3 (BOI1_YEAST), P38041
T1 chain: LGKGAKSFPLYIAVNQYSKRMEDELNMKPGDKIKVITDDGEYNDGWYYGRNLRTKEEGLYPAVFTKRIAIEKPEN

T2: Boi2 SH3 (BOI2_YEAST), P39969
T2 chain: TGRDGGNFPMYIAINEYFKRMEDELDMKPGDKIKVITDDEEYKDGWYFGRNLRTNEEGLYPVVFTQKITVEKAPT

T3: Rvs167 SH3 (RV167_YEAST), P39743
T3 chain: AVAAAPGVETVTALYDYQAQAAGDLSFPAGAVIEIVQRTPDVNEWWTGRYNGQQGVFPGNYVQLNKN

T4: Yfr024 SH3 (LSB3_YEAST), P43603
T4 chain: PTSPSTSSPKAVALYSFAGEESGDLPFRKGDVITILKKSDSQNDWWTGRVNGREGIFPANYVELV

T5: Yhr016c SH3 (YSC84_YEAST), P32793
T5 chain: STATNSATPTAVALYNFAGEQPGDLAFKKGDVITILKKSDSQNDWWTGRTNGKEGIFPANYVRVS


Columns and labels:
Assay in all cases: SPOT array
[1] = biological target: T1, Boi1 SH3 (BOI1_YEAST), P38041
[2] = biological target: T2, Boi2 SH3 (BOI2_YEAST), P39969
[3] = biological target: T3, Rvs167 SH3 (RV167_YEAST), P39743
[4] = biological target: T4, Yfr024 SH3 (LSB3_YEAST), P43603
[5] = biological target: T5, Yhr016c SH3 (YSC84_YEAST), P32793

Binder	normalised SPOT signal, Boehringer light units (BLU); mean over the file's lines of this peptide [1]	normalised SPOT signal, Boehringer light units (BLU); mean over the file's lines of this peptide [2]	normalised SPOT signal, Boehringer light units (BLU); mean over the file's lines of this peptide [3]	normalised SPOT signal, Boehringer light units (BLU); mean over the file's lines of this peptide [4]	normalised SPOT signal, Boehringer light units (BLU); mean over the file's lines of this peptide [5]
TDSPQLPSKDKSQE [YDL197C 472-485]	116	-0	95.6	4380	95.8
STSPPRPKRIVVAI [YDR538W 48-61]	356	79.7	182	3980	1340
TEAPMNPLKNREQM [YHR129C 114-127]	1.9	56.4	21.5	395	319
TDYPFKPPKVNFTT [YDR059C 59-72]	58.8	65.8	93.6	570	232
SSQPRPPPRPQQNP [YGR268C 71-84]	69.2	5.7	956	8620	2040
SSTPTTPERPKRKS [YHR182W 758-771]	818	36.8	579	58100	31700
SSRPTSPVRKARST [YER173W 28-41]	368	73.1	98.3	1780	317
TEPPMNPLKNREKM [YDL029W 109-122]	87.1	55.1	147	648	125
SSYPMNPPKISFMQ [YGR133W 86-99]	17.1	111	65.4	440	215
TDYPFKPPKISFTT [YBR082C 59-72]	54.7	89.1	43.3	374	116
SSTPIVPNRLKTVL [YHR164C 158-171]	56.2	10.8	1490	6570	1960

Further lines, results first:

normalised SPOT signal, Boehringer light units (BLU); mean over the file's lines of this peptide [1]	normalised SPOT signal, Boehringer light units (BLU); mean over the file's lines of this peptide [2]	normalised SPOT signal, Boehringer light units (BLU); mean over the file's lines of this peptide [3]	normalised SPOT signal, Boehringer light units (BLU); mean over the file's lines of this peptide [4]	normalised SPOT signal, Boehringer light units (BLU); mean over the file's lines of this peptide [5]	Binder
275	41.4	13200	30400	58900	TAAPATPPRHISNN [YPR040W 50-63]
194	44.5	24400	27500	49300	STPPTLPPRRIEDP [YMR192W 200-213]
88.1	46.1	56.5	94.9	119	TDLPVNPPRDDKEW [YNR021W 264-277]
100	10.3	44.5	179	127	SVLPQTPLKDVMGG [YOR326W 1092-1105]
76.5	92	42.9	1970	258	SSSPFIPKKRKPRS [YLR430W 2218-2231]
1100	376	771	11600	1900	SSRPMPPIRGPKRR [YLR147C 88-101]
311	43.5	74.7	4030	37.5	STRPQMPSRTRETA [YJR090C 50-63]
69.1	36	122	5490	1780	TDPPPQPRRLSDIV [YPR115W 471-484]
5220	90.9	57900	20400	72500	STSPKLPPRGKQRE [YPL249C 293-306]
136	58.5	33.8	0	0	TDGPIDPFKEPKTS [YPR018W 481-494]
50.9	36.1	81.7	534	244	TATPSSPKRMHSSI [YNL321W 116-129]
